In general, Km refers to the concentration of substrate that gives half-maximal velocity.

Substrate in data set [1]: N[C@@H](Cc1c[nH]c2c(F)ccc(F)c12)C(=O)O
Briefly: (§1) Compound was evaluated for relative maximum velocity (Vmax) in a reaction with tryptophan indole-lyase (tryptophanase) from Escherichia coli.

Substrate in data set [2]: N[C@@H](Cc1c[nH]c2ccccc12)C(=O)O
The data set is described as §1.

Substrate in data set [3]: N[C@@H](Cc1c[nH]c2c(F)cc(F)cc12)C(=O)O
The description is as §1.

Substrate in data set [4]: N[C@@H](Cc1c[nH]c2c(F)cccc12)C(=O)O
The description is as §1.

Substrate in data set [5]: N[C@@H](Cc1c[nH]c2c(F)ccc(F)c12)C(=O)O
Briefly: (§2) Compound was evaluated for Michaelis-Menten constant (Km) in a reaction with tryptophan indole-lyase (tryptophanase) from Escherichia coli.

Substrate in data set [6]: N[C@@H](Cc1c[nH]c2ccccc12)C(=O)O
The data set is described as §2.

Substrate in data set [7]: N[C@@H](Cc1c[nH]c2c(F)cc(F)cc12)C(=O)O
The data set is described as §2.

Substrate in data set [8]: N[C@@H](Cc1c[nH]c2c(F)cccc12)C(=O)O
Described as §2.

B1: Tryptophan 2,3-dioxygenase (Homo sapiens), P48775 (protein)
chain: MSGCPFLGNNFGYTFKKLPVEGSEEDKSQTGVNRASKGGLIYGNYLHLEKVLNAQELQSETKGNKIHDEHLFIITHQAYELWFKQILWELDSVREIFQNGHVRDERNMLKVVSRMHRVSVILKLLVQQFSILETMTALDFNDFREYLSPASGFQSLQFRLLENKIGVLQNMRVPYNRRHYRDNFKGEENELLLKSEQEKTLLELVEAWLERTPGLEPHGFNFWGKLEKNITRGLEEEFIRIQAKEESEEKEEQVAEFQKQKEVLLSLFDEKRHEHLLSKGERRLSYRALQGALMIYFYREEPRFQVPFQLLTSLMDIDSLMTKWRYNHVCMVHRMLGSKAGTGGSSGYHYLRSTVSDRYKVFVDLFNLSTYLIPRHWIPKMNPTIHKFLYTAEYCDSSYFSSDESD
Turning to B1, the Vmax was 42% in data set [1], 100% in data set [2], 58% in data set [3] and 29% in data set [4]. Also, the Km in data set [5] was 1700 µM; in data set [6], 260 µM; in data set [7] it was 490 µM; in data set [8] it was 640 µM.

For the origin of these results see ChEMBL document CHEMBL1126004, “Synthesis and resolution of 7-fluorotryptophans” (Bioorg Med Chem Lett, 1991).
